This is an account of results in patent US20230144608.

Data set [1] deals with IVGRPRHQGV (SEQ ID NO: 7).
Data set [2] concerns APAGLIVPYN (SEQ ID NO: 5).

MMP-8, sequence (chain, as listed by the source): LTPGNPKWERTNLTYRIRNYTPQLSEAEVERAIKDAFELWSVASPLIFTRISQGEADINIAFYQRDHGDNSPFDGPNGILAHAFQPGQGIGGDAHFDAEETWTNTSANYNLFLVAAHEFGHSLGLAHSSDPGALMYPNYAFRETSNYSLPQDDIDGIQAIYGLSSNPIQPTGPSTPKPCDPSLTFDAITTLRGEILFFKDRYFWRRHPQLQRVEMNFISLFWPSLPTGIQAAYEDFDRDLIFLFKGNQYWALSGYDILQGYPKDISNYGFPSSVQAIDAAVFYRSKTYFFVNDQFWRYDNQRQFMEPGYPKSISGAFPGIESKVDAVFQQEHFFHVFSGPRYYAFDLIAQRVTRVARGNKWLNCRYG
MMP-10, sequence (chain, as listed by the source): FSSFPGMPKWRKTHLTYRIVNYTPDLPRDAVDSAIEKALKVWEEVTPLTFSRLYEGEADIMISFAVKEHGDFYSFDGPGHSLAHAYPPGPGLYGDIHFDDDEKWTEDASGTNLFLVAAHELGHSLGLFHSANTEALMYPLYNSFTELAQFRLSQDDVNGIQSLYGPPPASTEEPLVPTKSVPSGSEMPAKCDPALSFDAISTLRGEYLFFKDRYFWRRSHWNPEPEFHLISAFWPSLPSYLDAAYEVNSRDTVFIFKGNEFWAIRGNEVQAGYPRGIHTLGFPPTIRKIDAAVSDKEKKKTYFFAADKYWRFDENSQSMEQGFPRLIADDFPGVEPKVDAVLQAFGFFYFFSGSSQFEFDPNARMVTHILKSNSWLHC
MMP-9, sequence (chain, as listed by the source): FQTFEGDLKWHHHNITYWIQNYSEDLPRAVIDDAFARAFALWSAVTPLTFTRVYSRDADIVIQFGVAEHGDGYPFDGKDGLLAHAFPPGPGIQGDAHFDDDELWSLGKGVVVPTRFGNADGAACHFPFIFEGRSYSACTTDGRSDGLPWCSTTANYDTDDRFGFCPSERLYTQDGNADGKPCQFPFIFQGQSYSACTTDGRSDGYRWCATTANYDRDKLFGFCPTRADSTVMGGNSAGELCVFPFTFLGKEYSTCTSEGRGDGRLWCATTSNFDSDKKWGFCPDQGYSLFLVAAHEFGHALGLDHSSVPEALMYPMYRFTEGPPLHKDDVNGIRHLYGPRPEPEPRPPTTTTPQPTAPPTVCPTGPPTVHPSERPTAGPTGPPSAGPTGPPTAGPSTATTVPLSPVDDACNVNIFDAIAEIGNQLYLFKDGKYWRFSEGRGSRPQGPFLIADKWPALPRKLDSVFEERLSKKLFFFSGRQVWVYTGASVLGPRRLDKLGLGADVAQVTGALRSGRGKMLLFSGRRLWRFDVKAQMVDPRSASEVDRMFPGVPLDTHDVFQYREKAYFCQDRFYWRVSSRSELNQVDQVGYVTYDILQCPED

Take MMP-8: the initial rate of cleavage by recombinant protease amounted to 0.1 µM/h with PVSLRSGS (SEQ ID NO: 1); 0.1 µM/h in the data set with TQKPLGLS (SEQ ID NO: 4); 0 µM/h in the data set on RSKYLATA (SEQ ID NO: 8); 0 µM/h in data set [1]; 0.2 µM/h with RPLALWRS (SEQ ID NO: 3); 7.2 µM/h in the data set on PANLVAPDP (SEQ ID NO: 6). Also, the initial rate of cleavage by recombinant protease in data set [2] turned out to be 0.5 µM/h.

With MMP-9, the initial rate of cleavage by recombinant protease was 6.5 µM/h with PVSLRSGS (SEQ ID NO: 1); 0.3 µM/h in the data set with TQKPLGLS (SEQ ID NO: 4); 0 µM/h in the data set with RSKYLATA (SEQ ID NO: 8); 0 µM/h in data set [1]; 0.2 µM/h with RPLALWRS (SEQ ID NO: 3); 8.8 µM/h with PANLVAPDP (SEQ ID NO: 6). In data set [2], the initial rate of cleavage by recombinant protease was 1.8 µM/h.

In the case of MMP-10, the initial rate of cleavage by recombinant protease with PVSLRSGS (SEQ ID NO: 1) was 0 µM/h; in the data set with TQKPLGLS (SEQ ID NO: 4), 0 µM/h; with RSKYLATA (SEQ ID NO: 8), 0 µM/h; in data set [1], 0 µM/h; with RPLALWRS (SEQ ID NO: 3), 0 µM/h; in the data set with PANLVAPDP (SEQ ID NO: 6) it was 1.8 µM/h. The initial rate of cleavage by recombinant protease in data set [2] amounted to 1.6 µM/h.
